Laboratory results from patent US20110065176A1 (PHARMABCINE, published 2011).

Target: T1, KDR (VEGFR-2) expressed on the cell surface (human, UniProt P35968 20-1356)
T1 construct: whole, on cells; also called endogenous human KDR; KDR of HUVEC cells
Assay: FACS on HUVEC cells pretreated with 20 ng/ml VEGF, against IMC-1C11 IgG

T1 sequence (P35968 20-1356): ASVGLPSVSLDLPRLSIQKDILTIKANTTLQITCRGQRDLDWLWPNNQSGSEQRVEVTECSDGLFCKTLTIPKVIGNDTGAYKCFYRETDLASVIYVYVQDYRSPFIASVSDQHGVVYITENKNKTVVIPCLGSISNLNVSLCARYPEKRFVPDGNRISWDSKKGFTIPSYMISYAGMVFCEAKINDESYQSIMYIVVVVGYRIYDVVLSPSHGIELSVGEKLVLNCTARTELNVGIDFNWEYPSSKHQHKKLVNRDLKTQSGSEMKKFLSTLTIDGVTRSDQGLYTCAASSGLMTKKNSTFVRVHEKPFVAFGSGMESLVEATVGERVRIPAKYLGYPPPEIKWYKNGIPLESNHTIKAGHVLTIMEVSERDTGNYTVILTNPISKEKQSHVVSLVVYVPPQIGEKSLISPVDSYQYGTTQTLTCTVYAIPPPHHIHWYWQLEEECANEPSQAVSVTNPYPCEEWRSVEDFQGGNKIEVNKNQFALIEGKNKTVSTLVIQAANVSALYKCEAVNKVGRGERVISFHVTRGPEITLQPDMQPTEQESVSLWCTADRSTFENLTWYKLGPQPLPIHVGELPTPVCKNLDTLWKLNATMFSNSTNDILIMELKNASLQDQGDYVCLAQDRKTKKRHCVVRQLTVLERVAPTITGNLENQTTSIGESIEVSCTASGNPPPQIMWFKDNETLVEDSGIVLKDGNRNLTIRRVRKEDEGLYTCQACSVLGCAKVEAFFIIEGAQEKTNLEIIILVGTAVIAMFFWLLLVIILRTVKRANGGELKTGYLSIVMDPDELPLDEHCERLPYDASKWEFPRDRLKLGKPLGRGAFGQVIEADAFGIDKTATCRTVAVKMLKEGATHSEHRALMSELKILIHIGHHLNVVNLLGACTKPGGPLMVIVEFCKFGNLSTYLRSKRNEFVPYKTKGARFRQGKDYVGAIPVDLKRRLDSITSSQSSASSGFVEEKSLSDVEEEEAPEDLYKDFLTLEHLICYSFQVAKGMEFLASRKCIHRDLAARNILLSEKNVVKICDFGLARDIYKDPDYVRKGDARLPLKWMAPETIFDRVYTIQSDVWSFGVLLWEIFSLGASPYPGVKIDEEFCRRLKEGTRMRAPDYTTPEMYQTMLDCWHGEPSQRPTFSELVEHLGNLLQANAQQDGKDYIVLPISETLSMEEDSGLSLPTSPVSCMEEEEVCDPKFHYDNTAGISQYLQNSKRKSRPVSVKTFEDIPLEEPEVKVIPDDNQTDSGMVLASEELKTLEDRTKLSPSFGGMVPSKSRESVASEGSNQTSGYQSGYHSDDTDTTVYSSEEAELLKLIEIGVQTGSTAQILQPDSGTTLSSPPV

fold higher KDR neutralizing ability than IMC-1C11 IgG: ~2 fold
B1: 6A6 IgG (antibody, V domains shown)
VH: QMQLVQSGAEVKKPGASVKLSCKASGYTFSSYWMHWVRQAPGQRLEWMGEINPGNGHTNYNEKFKSRVTITVDKSASTAYMELSSLRSEDTAVYYCAKIWGPSLTSPFDYWGQGTLVTVSS
VL: SNFMLTQPPSVSVSPGKTARITCRGDNLGDVNVHWYQQRPGQAPVLVMYYDADRPSGIPERFSGSNSGNTATLTISGVEAGDEADYYCQVWDRTSEYVFGTGTKVTVLG
notes: Whole human IgG expressed in CHO DG44 cells; also called 6A6 antibody; anti-KDR 6A6 IgG
